The target in test [1] is HLA-A*02:01. Nature of the test: IEDB peptide-MHC binding, purified MHC/competitive/fluorescence; filed as Kd, often an IC50 or EC50 that approximates it; ≥ and ≤ were set here for values at or beyond the usual limits of such assays. The settings on record: source organism: Streptococcus pneumoniae TIGR4.
For test [2], the target named is HLA-A*03:01. The test is described as above. The settings on record: source organism: Streptococcus pneumoniae TIGR4.
For test [3], the target named is HLA-A*23:01. Described as above. The note with it: source organism: Streptococcus pneumoniae TIGR4.
In test [4] the target is HLA-A*24:03. The test is described as above. The settings on record: source organism: Streptococcus pneumoniae TIGR4.
Test [5] concerns the target HLA-A*26:01. The description is as above. The settings on record: source organism: Streptococcus pneumoniae TIGR4.
The target of test [6] is HLA-A*29:02. Described as above. The settings on record: source organism: Streptococcus pneumoniae TIGR4.
Test [7] concerns the target HLA-A*69:01. Described as above. The settings on record: source organism: Streptococcus pneumoniae TIGR4.
For test [8], the target named is HLA-B*15:01. The description is as above.
Test [9] deals with HLA-B*15:17. The test is described as above. The settings on record: source organism: Streptococcus pneumoniae TIGR4.
In test [10] the target is HLA-B*18:01. The test is described as above. The settings on record: source organism: Streptococcus pneumoniae TIGR4.
Test [11] deals with HLA-B*27:03. The test is described as above. The note with it: source organism: Streptococcus pneumoniae TIGR4.
Test [12] has as its target HLA-B*39:01. The description is as above.
The target of test [13] is HLA-B*46:01. Described as above. The note with it: source organism: Streptococcus pneumoniae TIGR4.
Test [14] addresses HLA-B*51:01. Described as above. The note with it: source organism: Streptococcus pneumoniae TIGR4.
Test [15] has as its target HLA-B*57:01. Described as above. The note with it: source organism: Streptococcus pneumoniae TIGR4.
Test [16] has as its target HLA-A*01:01. Nature of the test: IEDB peptide-MHC binding, purified MHC/direct/fluorescence; filed as Kd, often an IC50 or EC50 that approximates it; ≥ and ≤ were set here for values at or beyond the usual limits of such assays.
Test [17] deals with HLA-A*02:01. The description is as above.
Test [18] deals with HLA-A*03:01. The test is described as above.
Test [19] concerns the target HLA-A*11:01. The description is as above.
In test [20] the target is HLA-A*24:03. Described as above.
Test [21] has as its target HLA-A*26:01. The description is as above.
In test [22] the target is HLA-A*69:01. The description is as above.
In test [23] the target is HLA-B*07:02. The description is as above.
Test [24] deals with HLA-B*08:01. The test is described as above.
Test [25] has as its target HLA-B*27:05. Described as above.
Test [26] has as its target HLA-B*40:01. The description is as above.
Test [27] has as its target HLA-B*44:02. Described as above. The note with it: source organism: Vibrio cholerae.
For test [28], the target named is HLA-B*58:01. The description is as above.
For test [29], the target named is HLA-C*14:02. Described as above.
The target in test [30] is HLA-A*31:01. The test is described as above.
Test [31] deals with HLA-B*15:01. Described as above.
Test [32] addresses HLA-B*35:01. The test is described as above.
Test [33] concerns the target HLA-A*01:01. Nature of the test: IEDB peptide-MHC binding, purified MHC/competitive/fluorescence; filed as Kd, often an IC50 or EC50 that approximates it; ≥ and ≤ were set here for values at or beyond the usual limits of such assays.
Test [34] has as its target HLA-B*35:01. The description is as above. The note with it: source organism: Francisella tularensis subsp. tularensis FSC198.
For test [35], the target named is HLA-B*07:02. Briefly: IEDB peptide-MHC binding, purified MHC/competitive/fluorescence; ≥ and ≤ were set here for values at or beyond the usual limits of such assays. The settings on record: source organism: Zaire ebolavirus.
Test [36] deals with HLA-A*02:03. Briefly: IEDB peptide-MHC binding, purified MHC/competitive/fluorescence; filed as Kd, often an IC50 or EC50 that approximates it; ≥ and ≤ were set here for values at or beyond the usual limits of such assays. The settings on record: source organism: Human immunodeficiency virus 1.
The target in test [37] is HLA-A*02:06. The test is described as above. The note with it: source organism: Human immunodeficiency virus 1.
The target of test [38] is HLA-A*30:01. Described as above. The note with it: source organism: Human immunodeficiency virus 1.
Where [39] appears, read: source organism: Streptococcus pneumoniae TIGR4.
Where [40] appears, read: source organism: Vibrio cholerae.
The mark [41] stands for this setting: source organism: Vibrio parahaemolyticus.
[42] abbreviates: source organism: Escherichia coli.
The mark [43] stands for this setting: source organism: Haemophilus influenzae.
The mark [44] stands for this setting: source organism: Francisella tularensis subsp. holarctica LVS.
[45] abbreviates: source organism: Human immunodeficiency virus 1.

Regarding CLSDEINHV, the Kd in test [1] was 0.0109 µM; in [2], no less than 20 µM; in test [3] it was no less than 20 µM; in test [4], no less than 20 µM; in test [5], no less than 20 µM; in test [6], no less than 20 µM. In addition, the dissociation constant Kd in [7], in test [8] (setting [39]), in test [9], in test [10], in [11] and in [12] (setting [39]) was no less than 20 µM in each case. Moreover, the Kd in test [13], in [14] and in test [15] was no less than 20 µM each time.

In the case of AYYWNQNGF, the Kd in test [16] (setting [40]) was no less than 20 µM; in test [17] (setting [40]), no less than 20 µM; in [18] (setting [40]), no less than 20 µM; in test [19] (setting [41]) it was no less than 20 µM; in test [20] (setting [41]), 0.00223 µM; in test [21] (setting [40]), no less than 20 µM. For the same sequence, the Kd in [22] (setting [40]), in test [23] (setting [40]), in test [24] (setting [40]), in [25] (setting [40]), in test [26] (setting [40]) and in test [27] was no less than 20 µM in each case. Besides, the results for the Kd in test [28] (setting [40]) and in [29] (source organism: Vibrio cholerae 2740-80) were no less than 20 µM and no more than 0.001 µM, respectively.

On to SHDTIGPYY, for which the dissociation constant Kd in [16] (setting [42]), in [17] (setting [42]), in test [18] (setting [42]), in [19] (setting [42]), in test [21] (setting [42]) and in test [30] (setting [42]) was no less than 20 µM in each case. The Kd in test [22] (setting [42]) is no less than 20 µM; in test [23] (setting [42]), no less than 20 µM; in [24] (setting [42]), no less than 20 µM; in test [31] (setting [42]), no less than 20 µM; in test [25] (setting [42]), no less than 20 µM; in test [32] (setting [42]), 4.76 µM. Further, the dissociation constant Kd in test [26] (setting [42]) is 2.92 µM; in [28] (setting [42]) it was no less than 20 µM.

LSTASSWSY had an equilibrium dissociation constant (Kd) in [33] (source organism: Influenza A virus (A/swine/Ohio/24366/2007(H1N1))) of 0.261 µM. This counts as sub-micromolar.

As to LAEQFSGEY, the dissociation constant (Kd) in test [16] (setting [43]) was 0.247 µM; in [17] (setting [43]), no less than 20 µM; in [18] (setting [43]), no less than 20 µM; in test [19] (setting [43]), no less than 20 µM; in test [20] (setting [43]), no less than 20 µM; in test [21] (setting [43]), no less than 20 µM. Also, the dissociation constant Kd is no less than 20 µM in [30] (setting [43]); no less than 20 µM in test [22] (setting [43]); no less than 20 µM in test [23] (setting [43]); no less than 20 µM in test [24] (setting [43]); 0.374 µM in test [31] (setting [43]); no less than 20 µM in [25] (setting [43]). For the same sequence, the Kd in test [32] (setting [43]) is 0.0167 µM; in test [26] (setting [43]), no less than 20 µM; in [28] (setting [43]) it was no less than 20 µM.

For AIYKNTIAY, the dissociation constant (Kd) in [18] (setting [44]) turned out to be 0.0069 µM; in test [19] (setting [44]), 0.0239 µM; in test [29] (source organism: Francisella tularensis subsp. tularensis FSC198), 0.118 µM; in test [34], 0.0986 µM.

SPQSLTTKP: the IC50 in test [35] is no less than 188 µM.

Take KSVFNSLY: the Kd in test [33] (source organism: Influenza A virus (A/X-31(H3N2))) was determined as 1.47 µM.

For the sequence EKLKSLFNTV, the Kd is no less than 20 µM in [36]; 0.343 µM in test [37]; 1.14 µM in test [38]; no less than 20 µM in [8] (setting [45]); no less than 20 µM in [12] (setting [45]).

What is called Kd is the concentration at which binding is half-saturated. Broadly, the IC50 is the concentration that inhibits the measured activity by half.

Source of the values: the Immune Epitope Database (IEDB).
